*1 amine or outer side, *2 acyl side, *3 side chain or, on linkers, in order; H or OH if unused. Where no end group is shown, it is not given here. Side-chain parts run from the residue outwards. [ ]: non-standard residue; d: D form. The star is where a group is joined. γGlu = O=C(O)[C@H](CCC(=O)[*:2])N[*:1]; Palmitoyl = CCCCCCCCCCCCCCCC(=O)*
B1: Co-agonist Peptide 1 (peptide)
peptide: H[dS]QGTFTSDK([γGlu-Palmitoyl])SKYLDARAAQDFVQWLLDT-NH2
modifications: N-terminus assumed
SMILES: CCCCCCCCCCCCCCCC(=O)N[C@@H](CCC(=O)NCCCC[C@H](NC(=O)[C@H](CC(=O)O)NC(=O)[C@H](CO)NC(=O)[C@@H](NC(=O)[C@H](Cc1ccccc1)NC(=O)[C@@H](NC(=O)CNC(=O)[C@H](CCC(N)=O)NC(=O)[C@@H](CO)NC(=O)[C@@H](N)Cc1c[nH]cn1)[C@@H](C)O)[C@@H](C)O)C(=O)N[C@@H](CO)C(=O)N[C@@H](CCCCN)C(=O)N[C@@H](Cc1ccc(O)cc1)C(=O)N[C@@H](CC(C)C)C(=O)N[C@@H](CC(=O)O)C(=O)N[C@@H](C)C(=O)N[C@@H](CCCNC(=N)N)C(=O)N[C@@H](C)C(=O)N[C@@H](C)C(=O)N[C@@H](CCC(N)=O)C(=O)N[C@@H](CC(=O)O)C(=O)N[C@@H](Cc1ccccc1)C(=O)N[C@H](C(=O)N[C@@H](CCC(N)=O)C(=O)N[C@@H](Cc1c[nH]c2ccccc12)C(=O)N[C@@H](CC(C)C)C(=O)N[C@@H](CC(C)C)C(=O)N[C@@H](CC(=O)O)C(=O)N[C@H](C(N)=O)[C@@H](C)O)C(C)C)C(=O)O
B2: Co-agonist Peptide 5 (peptide)
peptide: H[dS]QGTFTSDK([γGlu-γGlu-Palmitoyl])SKYLDARAAQDFVQWLLDT-NH2
modifications: N-terminus assumed
SMILES: CCCCCCCCCCCCCCCC(=O)N[C@@H](CCC(=O)N[C@@H](CCC(=O)NCCCC[C@H](NC(=O)[C@H](CC(=O)O)NC(=O)[C@H](CO)NC(=O)[C@@H](NC(=O)[C@H](Cc1ccccc1)NC(=O)[C@@H](NC(=O)CNC(=O)[C@H](CCC(N)=O)NC(=O)[C@@H](CO)NC(=O)[C@@H](N)Cc1c[nH]cn1)[C@@H](C)O)[C@@H](C)O)C(=O)N[C@@H](CO)C(=O)N[C@@H](CCCCN)C(=O)N[C@@H](Cc1ccc(O)cc1)C(=O)N[C@@H](CC(C)C)C(=O)N[C@@H](CC(=O)O)C(=O)N[C@@H](C)C(=O)N[C@@H](CCCNC(=N)N)C(=O)N[C@@H](C)C(=O)N[C@@H](C)C(=O)N[C@@H](CCC(N)=O)C(=O)N[C@@H](CC(=O)O)C(=O)N[C@@H](Cc1ccccc1)C(=O)N[C@H](C(=O)N[C@@H](CCC(N)=O)C(=O)N[C@@H](Cc1c[nH]c2ccccc12)C(=O)N[C@@H](CC(C)C)C(=O)N[C@@H](CC(C)C)C(=O)N[C@@H](CC(=O)O)C(=O)N[C@H](C(N)=O)[C@@H](C)O)C(C)C)C(=O)O)C(=O)O
B3: Co-agonist Peptide 8 (peptide)
peptide: H[dS]QGTFTSDK([γGlu-γGlu-Palmitoyl])SKYLEARAAQDFVQWLLDT-NH2
modifications: N-terminus assumed
SMILES: CCCCCCCCCCCCCCCC(=O)N[C@@H](CCC(=O)N[C@@H](CCC(=O)NCCCC[C@H](NC(=O)[C@H](CC(=O)O)NC(=O)[C@H](CO)NC(=O)[C@@H](NC(=O)[C@H](Cc1ccccc1)NC(=O)[C@@H](NC(=O)CNC(=O)[C@H](CCC(N)=O)NC(=O)[C@@H](CO)NC(=O)[C@@H](N)Cc1c[nH]cn1)[C@@H](C)O)[C@@H](C)O)C(=O)N[C@@H](CO)C(=O)N[C@@H](CCCCN)C(=O)N[C@@H](Cc1ccc(O)cc1)C(=O)N[C@@H](CC(C)C)C(=O)N[C@@H](CCC(=O)O)C(=O)N[C@@H](C)C(=O)N[C@@H](CCCNC(=N)N)C(=O)N[C@@H](C)C(=O)N[C@@H](C)C(=O)N[C@@H](CCC(N)=O)C(=O)N[C@@H](CC(=O)O)C(=O)N[C@@H](Cc1ccccc1)C(=O)N[C@H](C(=O)N[C@@H](CCC(N)=O)C(=O)N[C@@H](Cc1c[nH]c2ccccc12)C(=O)N[C@@H](CC(C)C)C(=O)N[C@@H](CC(C)C)C(=O)N[C@@H](CC(=O)O)C(=O)N[C@H](C(N)=O)[C@@H](C)O)C(C)C)C(=O)O)C(=O)O
B4: Co-agonist Peptide 9 (peptide)
peptide: HXQGTXTSDKSKYLDERAAQDFVQWLLDT
modifications: X2 = D-Ser; X6 = p-fluoro phenylalanine (pFF); K10 conjugated to γEγEC16; C-terminal amide
B5: Co-agonist Peptide 10 (peptide)
peptide: HXQGTFTSDKSKYLDERAAQDFVQWLXDT
modifications: X2 = D-Ser; K10 conjugated to γEγEC16; X27 = methionine sulfone; C-terminal amide
B6: Co-agonist Peptide 11 (peptide)
peptide: H[dS]QGTFTSDK([γGlu-γGlu-Palmitoyl])SLYLDERAAQDFVQWLLDT-NH2
modifications: N-terminus assumed
SMILES: CCCCCCCCCCCCCCCC(=O)N[C@@H](CCC(=O)N[C@@H](CCC(=O)NCCCC[C@H](NC(=O)[C@H](CC(=O)O)NC(=O)[C@H](CO)NC(=O)[C@@H](NC(=O)[C@H](Cc1ccccc1)NC(=O)[C@@H](NC(=O)CNC(=O)[C@H](CCC(N)=O)NC(=O)[C@@H](CO)NC(=O)[C@@H](N)Cc1c[nH]cn1)[C@@H](C)O)[C@@H](C)O)C(=O)N[C@@H](CO)C(=O)N[C@@H](CC(C)C)C(=O)N[C@@H](Cc1ccc(O)cc1)C(=O)N[C@@H](CC(C)C)C(=O)N[C@@H](CC(=O)O)C(=O)N[C@@H](CCC(=O)O)C(=O)N[C@@H](CCCNC(=N)N)C(=O)N[C@@H](C)C(=O)N[C@@H](C)C(=O)N[C@@H](CCC(N)=O)C(=O)N[C@@H](CC(=O)O)C(=O)N[C@@H](Cc1ccccc1)C(=O)N[C@H](C(=O)N[C@@H](CCC(N)=O)C(=O)N[C@@H](Cc1c[nH]c2ccccc12)C(=O)N[C@@H](CC(C)C)C(=O)N[C@@H](CC(C)C)C(=O)N[C@@H](CC(=O)O)C(=O)N[C@H](C(N)=O)[C@@H](C)O)C(C)C)C(=O)O)C(=O)O
B7: Co-agonist Peptide 12 (peptide)
peptide: HXQGTFTSDXSKYLDARAAQDFVQWLLDT
modifications: X2 = D-Ser; X10 = para-aminomethyl phenylalanine (pAF) conjugated to γEγEC16; C-terminal amide

molecular target: human glucagon receptor (human, UniProt P47871 26-477); test: cell-based or functional assay
Sequence (P47871 26-477): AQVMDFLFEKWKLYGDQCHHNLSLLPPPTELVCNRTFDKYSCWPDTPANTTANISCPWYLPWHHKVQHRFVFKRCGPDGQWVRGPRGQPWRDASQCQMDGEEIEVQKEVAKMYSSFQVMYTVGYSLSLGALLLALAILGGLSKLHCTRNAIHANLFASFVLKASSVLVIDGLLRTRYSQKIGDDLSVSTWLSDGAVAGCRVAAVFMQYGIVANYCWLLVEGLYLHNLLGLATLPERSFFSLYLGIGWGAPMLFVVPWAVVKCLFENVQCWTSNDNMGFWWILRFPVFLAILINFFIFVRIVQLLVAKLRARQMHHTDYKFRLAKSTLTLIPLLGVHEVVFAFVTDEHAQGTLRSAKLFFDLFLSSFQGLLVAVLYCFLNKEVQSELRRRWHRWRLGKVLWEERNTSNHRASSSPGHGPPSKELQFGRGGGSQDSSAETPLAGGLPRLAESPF

Binder	GCGR EC50 (nM) human; cAMP production (HitHunter cAMP XS) in cells expressing human GCGR, 20% human serum [nM]
B1	0.042
B2	0.03
HXQGTFTSDKSKYLDERAAQDFVQWLLDT (X2 = D-Ser; K10 conjugated to γEγEC16; C-terminal amide) [Comparator Co-agonist Peptide 6]	0.009
Ac-HAQGTFTSDK([γGlu-γGlu-C16])SKYLDERAAQDFVQWLLDT-NH2 [Co-agonist Peptide 7]	0.07
B3	0.02
B4	0.05
B5	0.02
B6	0.06
B7	0.05

molecular target: human glucagon-like peptide 1 receptor (human, UniProt P43220 24-463); test: cell-based or functional assay

Binder	GLPR1 EC50 (nM) human; cAMP production (HitHunter cAMP XS) in cells expressing human GLP-1R, 20% human serum [nM]
B1	0.048
B2	0.033
HXQGTFTSDKSKYLDERAAQDFVQWLLDT (X2 = D-Ser; K10 conjugated to γEγEC16; C-terminal amide) [Comparator Co-agonist Peptide 6]	0.007
Ac-HAQGTFTSDK([γGlu-γGlu-C16])SKYLDERAAQDFVQWLLDT-NH2 [Co-agonist Peptide 7]	0.07
B3	0.02
B4	0.06
B5	0.02
B6	0.06
B7	0.05
